Here are results for 1 substance from patent US20100112601A1.

This test has as its target PAC1 receptor expressed in Chinese hamster ovary (CHO) cells (UniProt P41586). In words: cell-based or functional assay.
Chain of UniProt P41586 (P41586 21-468 limits assumed): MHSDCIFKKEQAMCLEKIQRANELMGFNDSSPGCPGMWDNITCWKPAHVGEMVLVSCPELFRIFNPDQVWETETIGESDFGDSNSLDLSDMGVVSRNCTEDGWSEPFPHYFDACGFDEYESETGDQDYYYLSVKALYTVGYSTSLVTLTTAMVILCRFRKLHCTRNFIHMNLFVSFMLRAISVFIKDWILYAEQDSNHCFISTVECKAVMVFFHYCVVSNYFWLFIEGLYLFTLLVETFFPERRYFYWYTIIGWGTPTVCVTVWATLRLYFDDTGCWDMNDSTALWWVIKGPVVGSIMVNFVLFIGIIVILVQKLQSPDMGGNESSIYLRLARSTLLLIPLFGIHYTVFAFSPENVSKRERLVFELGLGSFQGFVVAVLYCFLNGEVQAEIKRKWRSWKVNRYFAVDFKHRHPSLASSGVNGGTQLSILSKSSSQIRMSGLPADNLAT

Consider “PACAP(6-38)NH2 (from UniProt P18509 87-119) (peptide)”, for which the inhibition of PACAP27-stimulated GTPγ-35S binding to membranes of PAC1-expressing CHO cells, IC50 came out at 0.1 µM.
